Assay results as given in patent CN113817050A.

Target: 抗原(Biacore 8K表面等离子共振实验，未指明)
Test: SPR, Biacore 8K; antigen and format not given

B1: 抗SARS-CoV-2的单克隆抗体1H8 (antibody, V domains shown)
VH: EVQLVESGGGLVQPGGSLRLSCAASEITVSSNYMNWVRQAPGKGLEWVSVIYSGGTTYYADSVKGRFTISRDNSENTLYLQMNSLRAEDTAVYYCARDLMEVGGMDVWGQGTTVTVSS
VL: DIVMTQSPSSLSASVGDRVTITCRASQGVSNYLAWYQQKPGKVPKLLIYAASTLQSGVPSRFSGSRSGTDFTLTISSLQPEDVATYYCQNYNSAPFAFGPGTKVEIK
Question: How did the Kd turn out when B1 was run?
Answer: The Kd was 18.7 nM.

Question: And the koff?
Answer: Its koff is 0.00138 s⁻¹.

Question: And the kon?
Answer: Its kon is 73600 M⁻¹ s⁻¹.
